Experimental findings from patent US7329737 (DYAX, dated 2008) are described below.

In test [1] the target is T1, hK1 (human tissue kallikrein 1), recombinant (human, UniProt P06870 25-262).
T1 construct: Expressed in P. pastoris from KLK1 cDNA and purified; enzymatically active; also called KLK1; Recombinant (Pichia) Kallikrein
The experiment in a line: SPR.

Test [2] has as its target T1, hK1 (human tissue kallikrein 1), …. The experiment in a line: cell-based or functional assay.

Changes are numbered by the printed parent chain.

B1: M0134-B03 (Fab, V domains shown)
VH: EVQLLESGGGLVQPGGSLRLSCAASGFTFSHYSMFWVRQAPGKGLEWVSSIYPSGGQTDYADSVKGRFTISRDNSKNTLYLQMNSLRAEDTAVYYCARRGLLWSFDSWGQGTLVTVSS
VL: AQSALTQPPSASGSPGQSVTISCTGTSSDVGAYNYVSWYQQHPGKAPKLIIYEVNKRPSGVPDRFSASKSGNTASLTVSGLQAEDEADYYCNSYAGSNSLIFGGGTKLTVLG
For the molecule B1, in test [1], the Kd stood at 2.41 nM, the dissociation rate constant (koff) is 0.00096 s⁻¹ and the kon came out at 399000 M⁻¹ s⁻¹.

B2: M0110-F08 (Fab, V domains shown)
VH: EVQLLESGGGLVQPGGSLRLSCAASGFTFSNYVMYWVRQAPGKGLEWVSGIGPSGGFTTYADSVKGRFTISRDNSKNTLYLQMNSLRAEDTAVYYCTRDRYFGSGYYMAAYYYYGMDVWGQGTTVTVSS
VL: DIQMTQSPGTLSLSPGERATLSCRASQSVVSNFLAWYQQKPGQAPRLLIYGASSRATGIPDRFSGSGSGTDFILTISRLEPEDFAVYYCQQYGSSPYSFGQGTKLEIKR
Regarding B2, in test [2], the “IC50 (nM), inhibition of hK1 enzyme activity” value came to 44 nM.

B3: M0098-G05 (Fab, V domains shown)
VH: EVQLLESGGGLVQPGGSLRLSCAASGFTFSKYKMGWVRQAPGKGLEWVSYIRPSGGMTFYADSVKGRFTISRDNSKNTLYLQMNSLRAEDTAVYYCTREHYQASYSSSAWFRMVPAGAFDIWGQGTMVTVSS
VL: DIQMTQSPSSLSASVGDRVTITCRASQTISRYLNWYQQKPGTAPKLLIYAASSLQSGVPSRFSGDGSGTDFTLTISSLQPEDFGIYFCQQSYSAPRTFGQGTKVEIKR
Regarding B3, the “IC50 (nM), inhibition of hK1 hydrolysis of Pro-Phe-Arg-AMC” value in test [2] was 4 nM.

B4: M0139-C02 (Fab, V domains shown)
VH: B3 VH with K31Y, G35H, Y50V, R52Y, M57K, F59T
VL: DIQMTQSPSSLSASVGDRVTITCRASQGIRRAWYQQKPGKPPKLLINDASSLESGVPSRFSGSGSGTDFTLTISSLQPEDFATYYCQQSYSTPPWTFGQGTKVEIKR
Turning to B4, the “IC50 (nM), inhibition of hK1 hydrolysis of Pro-Phe-Arg-AMC” value in test [2] is 1 nM.

B5: M0136-D07 (Fab, V domains shown)
VH: EVQLLESGGGLVQPGGSLRLSCAASGFTFSPYKMGWVRQAPGKGLEWVSSIYPSGGVTTYADSVKGRFTISRDNSKNTLYLQMNSLRAEDTAVYYCTKNINLRYDILTGYFDIWGQGTTVTVSS
VL: DIQMTQSPSSVSASVGDRVTITCRASQDIASWLAWYQQKPEKVPKLLIYAASSLQSGVPSRFSGSGSGTDFTLTINSLQPEDFATYYCQQANSFPFTFGPGTKVDFKR
With B5, in test [1], the Kd came out at 2.26 nM, the koff came out at 0.000397 s⁻¹ and the kon is 176000 M⁻¹ s⁻¹.

B6: M0136-E12 (Fab, V domains shown)
VH: EVQLLESGGGLVQPGGSLRLSCAASGFTFSNYSMQWVRQAPGKGLEWVSSIGPSGGRTWYADSVKGRFTISRDNSKNTLYLQMNSLRAEDTAVYYCARVGVWYGMDVWGQGTTVTVSS
VL: DIQMTQSPSSLSASVGDRVTITCRASHVINIDLGWYQQKPGKAPKLLIYGASHLQRGVPSRFSGSGSGTVFTLTISGLQPEDFATYYCLQDSFYPRTFGQGTRLEIKR
As to B6, in test [1], the Kd amounted to 2.23 nM, the dissociation rate constant (koff) was 0.00107 s⁻¹ and the kon turned out to be 481000 M⁻¹ s⁻¹.

B7: M0138-E02 (Fab, V domains shown)
VH: B6 VH with N31H, S33M, Q35H, S50G, R57K, W59P
VL: DIQMTQSPSSVSASVGDRVTITCRASQGISSWLVWYQQKPGKAPKLLIYAASSLQSGVPSRFSGSGSGTDFTLTISSLQPEDFATYYCQQAKTFPLTFGGGTKVEIKR
Consider B7, for which, in test [1], the Kd amounted to 2.26 nM, the koff worked out at 0.00138 s⁻¹ and the kon came to 614000 M⁻¹ s⁻¹.

B8: M0131-F09 (Fab, V domains shown)
VH: B6 VH with N31H, S33V, S50G, R57S, W59T
VL: DIQMTQSPATLSLSPGERATLSCRASQSVSSYLAWYQQKPGQAPRLLIYDASNRATGIPARFSGSGSGTDFTLTISSLEPEDFAVYYCQQRSNWLWTFGQGTKVEIKR
With B8, in test [1], the Kd came out at 2.36 nM, the koff amounted to 0.000734 s⁻¹ and the kon was found to be 311000 M⁻¹ s⁻¹.
